Source: the supplement of paper PMC9112550, “Optimization of the antimicrobial peptide Bac7 by deep mutational scanning” (BMC Biology, 2022)

Test system: Escherichia coli TOP10
Assay: shrunken log2 fold change of peptide-encoding DNA abundance (4.5 h post-induction vs induction); higher = less antimicrobial activity (less host growth inhibition)
Settings: time post-induction: 4.5 h; library: site-saturation at positions 5, 18, 19, 20
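Note: peptides expressed intracellularly from a pBAD plasmid library in pooled LB shake-flask culture, induced with 0.3% L-arabinose, DNA abundance read by NGS, three biological replicates, DESeq2 with apeglm shrinkage.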

RRIRERPPRLPRPRPRPPDLPRP
shrunken log2 fold change: 0.16

RRIRDRPPRLPRPRPRPMCTPRP
shrunken log2 fold change: -0.0135

RRIRNRPPRLPRPRPRPSRPPRP
shrunken log2 fold change: 0.112

RRIRMRPPRLPRPRPRPAWEPRP
shrunken log2 fold change: 0.655

RRIRQRPPRLPRPRPRPVQNPRP
shrunken log2 fold change: 0.0137

RRIRRRPPRLPRPRPRPIRVPRP
shrunken log2 fold change: 0.244

RRIRPRPPRLPRPRPRPTINPRP
shrunken log2 fold change: -0.51

RRIRERPPRLPRPRPRPTENPRP
shrunken log2 fold change: -0.0185

RRIRQRPPRLPRPRPRPGQDPRP
shrunken log2 fold change: 0.102

RRIRHRPPRLPRPRPRPHCHPRP
shrunken log2 fold change: -0.551

RRIRTRPPRLPRPRPRPMLPPRP
shrunken log2 fold change: -0.0543

RRIRWRPPRLPRPRPRPDTNPRP
shrunken log2 fold change: -0.144

RRIRRRPPRLPRPRPRPMESPRP
shrunken log2 fold change: -0.00992

RRIRHRPPRLPRPRPRPNFWPRP
shrunken log2 fold change: 0.257

RRIRMRPPRLPRPRPRPEDTPRP
shrunken log2 fold change: 1.94

RRIRLRPPRLPRPRPRPECAPRP
shrunken log2 fold change: 0.65

RRIRWRPPRLPRPRPRPKGGPRP
shrunken log2 fold change: 0.536

RRIRHRPPRLPRPRPRPRMRPRP
shrunken log2 fold change: 0.39

RRIRHRPPRLPRPRPRPNTMPRP
shrunken log2 fold change: -0.905

RRIRCRPPRLPRPRPRPYNQPRP
shrunken log2 fold change: -1.23

RRIRRRPPRLPRPRPRPQDPPRP
shrunken log2 fold change: 0.376

RRIRRRPPRLPRPRPRPLLCPRP
shrunken log2 fold change: 0.35

RRIRERPPRLPRPRPRPMWWPRP
shrunken log2 fold change: -0.298

RRIRARPPRLPRPRPRPFNVPRP
shrunken log2 fold change: 0.0338

RRIRFRPPRLPRPRPRPSLRPRP
shrunken log2 fold change: -0.262

RRIRYRPPRLPRPRPRPYMMPRP
shrunken log2 fold change: -0.337

RRIRCRPPRLPRPRPRPFHTPRP
shrunken log2 fold change: -0.0266

RRIRWRPPRLPRPRPRPSGHPRP
shrunken log2 fold change: -0.195

RRIRDRPPRLPRPRPRPHRKPRP
shrunken log2 fold change: 0.00895

RRIRCRPPRLPRPRPRPEKLPRP
shrunken log2 fold change: -0.077

RRIRSRPPRLPRPRPRPQDAPRP
shrunken log2 fold change: 0.0464

RRIRSRPPRLPRPRPRPVTGPRP
shrunken log2 fold change: 0.255

RRIRDRPPRLPRPRPRPQVHPRP
shrunken log2 fold change: -0.0385

RRIRSRPPRLPRPRPRPQRRPRP
shrunken log2 fold change: 0.21

RRIRLRPPRLPRPRPRPIGIPRP
shrunken log2 fold change: -0.179

RRIRGRPPRLPRPRPRPLHFPRP
shrunken log2 fold change: 0.339

RRIRYRPPRLPRPRPRPRPNPRP
shrunken log2 fold change: -0.0554

RRIRMRPPRLPRPRPRPVHMPRP
shrunken log2 fold change: -0.318

RRIRQRPPRLPRPRPRPMSFPRP
shrunken log2 fold change: 0.0381

RRIRLRPPRLPRPRPRPMCDPRP
shrunken log2 fold change: -0.481

RRIRYRPPRLPRPRPRPGHDPRP
shrunken log2 fold change: -0.0736

RRIRHRPPRLPRPRPRPYCEPRP
shrunken log2 fold change: -0.114

RRIRARPPRLPRPRPRPRDSPRP
shrunken log2 fold change: 0.499

RRIRPRPPRLPRPRPRPNILPRP
shrunken log2 fold change: -0.305

RRIRFRPPRLPRPRPRPHMEPRP
shrunken log2 fold change: -0.405

RRIRGRPPRLPRPRPRPEAAPRP
shrunken log2 fold change: 3.27

RRIRVRPPRLPRPRPRPAKEPRP
shrunken log2 fold change: 0.226

RRIRARPPRLPRPRPRPNLKPRP
shrunken log2 fold change: 0.164

RRIRARPPRLPRPRPRPFIKPRP
shrunken log2 fold change: -0.529

RRIRKRPPRLPRPRPRPYWIPRP
shrunken log2 fold change: -0.0363

RRIRCRPPRLPRPRPRPIGDPRP
shrunken log2 fold change: -0.0014

RRIRNRPPRLPRPRPRPSEDPRP
shrunken log2 fold change: -0.145

RRIRSRPPRLPRPRPRPQWMPRP
shrunken log2 fold change: -0.155

RRIRSRPPRLPRPRPRPCTFPRP
shrunken log2 fold change: -0.401

RRIRYRPPRLPRPRPRPFNCPRP
shrunken log2 fold change: -0.362

RRIRHRPPRLPRPRPRPRRAPRP
shrunken log2 fold change: 0.21

RRIRTRPPRLPRPRPRPLESPRP
shrunken log2 fold change: -0.0663

RRIRVRPPRLPRPRPRPRTWPRP
shrunken log2 fold change: 0.0366

RRIRLRPPRLPRPRPRPDGMPRP
shrunken log2 fold change: -0.153

RRIRVRPPRLPRPRPRPRIYPRP
shrunken log2 fold change: -0.15

RRIRQRPPRLPRPRPRPSFMPRP
shrunken log2 fold change: -0.509

RRIRFRPPRLPRPRPRPVWMPRP
shrunken log2 fold change: -0.119

RRIRTRPPRLPRPRPRPKFPPRP
shrunken log2 fold change: -0.0959

RRIRRRPPRLPRPRPRPVKCPRP
shrunken log2 fold change: 0.23

RRIRMRPPRLPRPRPRPFFLPRP
shrunken log2 fold change: -0.199

RRIRTRPPRLPRPRPRPWYKPRP
shrunken log2 fold change: -0.0134

RRIRWRPPRLPRPRPRPNHTPRP
shrunken log2 fold change: -0.323

RRIRGRPPRLPRPRPRPDGCPRP
shrunken log2 fold change: 0.792

RRIRKRPPRLPRPRPRPGGMPRP
shrunken log2 fold change: 0.633

RRIRHRPPRLPRPRPRPGLMPRP
shrunken log2 fold change: -0.162

RRIRYRPPRLPRPRPRPPRTPRP
shrunken log2 fold change: -0.0112

RRIRLRPPRLPRPRPRPKDVPRP
shrunken log2 fold change: -0.0185

RRIRPRPPRLPRPRPRPTIGPRP
shrunken log2 fold change: -0.128

RRIRWRPPRLPRPRPRPGLMPRP
shrunken log2 fold change: 0.444

RRIRCRPPRLPRPRPRPDECPRP
shrunken log2 fold change: -0.00243

RRIRLRPPRLPRPRPRPLFSPRP
shrunken log2 fold change: -0.588

RRIRWRPPRLPRPRPRPSLLPRP
shrunken log2 fold change: 0.0919

RRIRSRPPRLPRPRPRPRLWPRP
shrunken log2 fold change: 0.397

RRIRFRPPRLPRPRPRPGQGPRP
shrunken log2 fold change: 0.249

RRIRLRPPRLPRPRPRPYIVPRP
shrunken log2 fold change: -0.0573

RRIRERPPRLPRPRPRPKNIPRP
shrunken log2 fold change: -0.723

RRIRDRPPRLPRPRPRPQSIPRP
shrunken log2 fold change: 0.00839

RRIRNRPPRLPRPRPRPCVRPRP
shrunken log2 fold change: -0.109

RRIRHRPPRLPRPRPRPGCLPRP
shrunken log2 fold change: -0.278

RRIRCRPPRLPRPRPRPGKSPRP
shrunken log2 fold change: 0.0822

RRIRMRPPRLPRPRPRPREVPRP
shrunken log2 fold change: 1.8

RRIRPRPPRLPRPRPRPHWTPRP
shrunken log2 fold change: -0.119

RRIRKRPPRLPRPRPRPWWDPRP
shrunken log2 fold change: -0.0115

RRIRCRPPRLPRPRPRPHNKPRP
shrunken log2 fold change: -0.75

RRIRYRPPRLPRPRPRPYMNPRP
shrunken log2 fold change: 0.0271

RRIRWRPPRLPRPRPRPAFVPRP
shrunken log2 fold change: 0.139

RRIRTRPPRLPRPRPRPRANPRP
shrunken log2 fold change: 0.177

RRIRWRPPRLPRPRPRPAEKPRP
shrunken log2 fold change: 0.192

RRIRQRPPRLPRPRPRPGWNPRP
shrunken log2 fold change: -0.0526

RRIRFRPPRLPRPRPRPMDNPRP
shrunken log2 fold change: 0.000389

RRIRSRPPRLPRPRPRPFFIPRP
shrunken log2 fold change: -0.547

RRIRSRPPRLPRPRPRPRCCPRP
shrunken log2 fold change: -0.00537

RRIRFRPPRLPRPRPRPGQFPRP
shrunken log2 fold change: -0.148

RRIRVRPPRLPRPRPRPCWIPRP
shrunken log2 fold change: -0.0862

RRIRLRPPRLPRPRPRPNVPPRP
shrunken log2 fold change: -0.213

RRIRPRPPRLPRPRPRPWDAPRP
shrunken log2 fold change: 0.0508

RRIRQRPPRLPRPRPRPHTTPRP
shrunken log2 fold change: 0.182

RRIRMRPPRLPRPRPRPFWKPRP
shrunken log2 fold change: 0.072

RRIRDRPPRLPRPRPRPKEFPRP
shrunken log2 fold change: 0.0479

RRIRSRPPRLPRPRPRPKRWPRP
shrunken log2 fold change: 0.71

RRIRRRPPRLPRPRPRPSRGPRP
shrunken log2 fold change: 0.432

RRIRNRPPRLPRPRPRPTSSPRP
shrunken log2 fold change: 0.211

RRIRDRPPRLPRPRPRPIFRPRP
shrunken log2 fold change: -0.202

RRIRYRPPRLPRPRPRPCQKPRP
shrunken log2 fold change: -0.0134

RRIRGRPPRLPRPRPRPEVPPRP
shrunken log2 fold change: 0.434

RRIRYRPPRLPRPRPRPDKGPRP
shrunken log2 fold change: -0.0723

RRIRGRPPRLPRPRPRPACAPRP
shrunken log2 fold change: 1.13

RRIRDRPPRLPRPRPRPFYNPRP
shrunken log2 fold change: -0.732

RRIRERPPRLPRPRPRPNTPPRP
shrunken log2 fold change: 0.0861

RRIRERPPRLPRPRPRPHAWPRP
shrunken log2 fold change: 0.146

RRIRFRPPRLPRPRPRPKKEPRP
shrunken log2 fold change: 0.0316

RRIRRRPPRLPRPRPRPYHHPRP
shrunken log2 fold change: -0.471

RRIRLRPPRLPRPRPRPNQFPRP
shrunken log2 fold change: 0.0261

RRIRLRPPRLPRPRPRPLQWPRP
shrunken log2 fold change: 0.126

RRIRQRPPRLPRPRPRPGNIPRP
shrunken log2 fold change: -0.151

RRIRRRPPRLPRPRPRPLEAPRP
shrunken log2 fold change: 0.404

RRIRYRPPRLPRPRPRPNNYPRP
shrunken log2 fold change: -1.22

RRIRDRPPRLPRPRPRPIQSPRP
shrunken log2 fold change: -0.0949

RRIRIRPPRLPRPRPRPPLSPRP
shrunken log2 fold change: -0.128

RRIRNRPPRLPRPRPRPPKFPRP
shrunken log2 fold change: -0.0082

RRIRCRPPRLPRPRPRPWTQPRP
shrunken log2 fold change: -0.12

RRIRRRPPRLPRPRPRPFRGPRP
shrunken log2 fold change: -0.105

RRIRQRPPRLPRPRPRPGCEPRP
shrunken log2 fold change: 0.0109

RRIRERPPRLPRPRPRPFPAPRP
shrunken log2 fold change: -0.0357

RRIRVRPPRLPRPRPRPCVNPRP
shrunken log2 fold change: 0.125

RRIRIRPPRLPRPRPRPIPIPRP
shrunken log2 fold change: -0.317

RRIRLRPPRLPRPRPRPLKHPRP
shrunken log2 fold change: -0.161

RRIRMRPPRLPRPRPRPWHDPRP
shrunken log2 fold change: 0.162

RRIRERPPRLPRPRPRPWNIPRP
shrunken log2 fold change: -0.308

RRIRTRPPRLPRPRPRPDQFPRP
shrunken log2 fold change: -0.00188

RRIRMRPPRLPRPRPRPTAGPRP
shrunken log2 fold change: 0.396

RRIRHRPPRLPRPRPRPKYAPRP
shrunken log2 fold change: -0.0413

RRIRGRPPRLPRPRPRPHVMPRP
shrunken log2 fold change: 0.0731

RRIRQRPPRLPRPRPRPPCGPRP
shrunken log2 fold change: 0.184

RRIRCRPPRLPRPRPRPQQFPRP
shrunken log2 fold change: -0.217

RRIRCRPPRLPRPRPRPYWNPRP
shrunken log2 fold change: -0.629

RRIRKRPPRLPRPRPRPSGIPRP
shrunken log2 fold change: 0.149

RRIRHRPPRLPRPRPRPTEKPRP
shrunken log2 fold change: 0.0288

RRIRIRPPRLPRPRPRPTIKPRP
shrunken log2 fold change: -0.611

RRIRMRPPRLPRPRPRPHEEPRP
shrunken log2 fold change: 0.053

RRIRHRPPRLPRPRPRPVGCPRP
shrunken log2 fold change: 0.0698

RRIRCRPPRLPRPRPRPEDAPRP
shrunken log2 fold change: -0.0302

RRIRPRPPRLPRPRPRPHPAPRP
shrunken log2 fold change: 0.217

RRIRGRPPRLPRPRPRPLGRPRP
shrunken log2 fold change: 0.599

RRIRKRPPRLPRPRPRPPLRPRP
shrunken log2 fold change: 0.708
